# Results from the RNAGym collection of RNA variant scans (doi:10.1073/pnas.2313332121).
# B1: TPR t1 (parent)
# chain: GACCAAUCUGCCCUCAGAGCUCGAGAACAUCUUCGGAUGCAGAGGAGGCAGGCUUCGGUGGCGCGAUAGCGCCAACGUCCUCAACCUCCAAUGCAUCCCACCACAUGAUGAUGCCUGAAGAGCCUUGGUUUUUUG
# Variants of: B1
# Experiment: polymerase ribozyme fitness, log enrichment relative to wild type (log ratio); higher = more active; in vitro selection for triplet polymerase activity
# Method in brief: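 Fitness compares each genotype's enrichment to that of the wild type on a logarithmic scale, averaging replicates with inverse-variance weights. The logarithm is base 2. Enrichment came from Illumina sequencing of input and output libraries after one triplicate round of in vitro selection, which included frozen incubation at −7 °C, of PCR-built, transcribed mutant libraries of each subunit of a heterodimeric triplet polymerase ribozyme. Only genotypes with ≥10 input reads and ≥1 read per output were kept.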
row,Variant,polymerase ribozyme fitness (log ratio)
1,C82A C89G C101A C102A U112C C123A,-6.34
2,G77A C80U C98A C123G,-4.14
3,U87G G113C,-2.26
4,C79U U129C,0.161
5,U78C G110C,-3.67
6,C82G G127A,-2
7,A83C C114G U132A,-2.52
8,A84G C85U,0.384
9,A83U,-0.119
10,A83G,-0.489
11,A83C,-0.225
12,C79U G110C,-2.71
13,C79U C80U U116C,-4.27
14,C86A C98U,-0.468
15,C80G G127U,-6.14
16,G77A A111C A119U C123A U131C,-2.38
17,U78C U87G U126A,-2.18
18,A84U C115G,-3.83
19,G77A A95G G120A,0.0766
20,G77U U78C U87G A121U U130G,2.02
21,C80A A95U G120A U130G,-3.52

row,Variant,polymerase ribozyme fitness (log ratio)
1,U78G C89A,-3.29
2,C82G A90G A91G C101G,-2.95
3,C86A U132C U133A,-1.36
4,C82U U109G U130G,-6.23
5,U87C A95U C102A C124A G128C,-3.08
6,U81A A91U C101U,-3.43
7,C85G U131A,-1.92
8,U81A A105U U132C,-2.04
9,C82U U96G,-1.12
10,C79A C80A C88A,-5.16
11,C86U A91G C98U,-2.63
12,C85U G110C C115U A121G,-6.18
13,U78A C88G C98U G135A,-2.63
14,G77A U131A,0.113
15,C80U C88U A111G C114A,-4.84
16,U78C U109A G128A,-4.56
17,C79G A121U,0.316
18,C80U G93A,-1.52
19,C88A,-0.325
20,U87G A119G,1.67
21,C86U A100U G110A U129G,-3.54

row,Variant,polymerase ribozyme fitness (log ratio)
1,C82G C85A A111G G113U U130G,-4.27
2,C82A C102U,-1.82
3,U78A U96C,-0.338
4,C79U G117C,-3.9
5,A83G C86G G127U U132C,-2.25
6,C88A A111U,-4.33
7,A83G G120C,0.655
8,A83G G120A,0.774
9,C82A G93C C97U G113U,-4.46
10,U81G A95G,-4.01
11,U78C C94G A95G A118U,-0.801
12,C82U G120U,0.312
13,C79A A83G C115G C123A U131G,-4.48
14,C85A U112A C115U U130C,-2.28
15,C80U G120U U129G,-0.816
16,U87A G110C,-3.47
17,G77U C94U C102A C115A,-2.01
18,U78A U87G,-0.804
19,U78C U112A C114G,-0.26
20,C80U G113U,-3.41
21,G77A C94G,-1.19

row,Variant,polymerase ribozyme fitness (log ratio)
1,C82A A103G,-4.08
2,C79G G93U C115G,-4.32
3,C85U C94U,-1.2
4,C79A C82U C94A G113A G128U,-5.6
5,C79G A84C,-2.61
6,U87A C89U C123A C124G,1.56
7,C80U C101U A111U U116A,-4.81
8,U78G A95C,-0.597
9,A84U G93A C115G,-2.08
10,C80U G135U,-0.986
11,C85G C114U,-3.59
12,C79A G110A,-2.55
13,C80A G113A G135A,-3.66
14,A83U G113C G120U U132A,-4.48
15,G77C U125A,-0.685
16,G77C G117U,-2.55
17,G77C A83C C85U U109C C114G,-6.69
18,C86A U116G,-2.89
19,C79A C99A,-6.57
20,A84G G93C G127U,-1.68
